In patent US8202696 (MAX PLANCK GESELLSCHAFT ZUR FORDERUNG DER WISSENSCHAFTEN E V, dated 2012):

B2: MID1 B-box 1 (residues 110-165), yeast two-hybrid bait (other)
chain: TMTSAEKVLCQFCDQDPAQDAVKTCVTCEVSYCDECLKATHPNKKPFTGHRLIEPI
notes: also called BB1; isolated B-Box1; not shown: two-hybrid fusion partner; not described
B4: α4 protein, full-length, in the yeast two-hybrid system (other, human, UniProt P78318 2-339, looked up)
chain: AAEDELQLPRLPELFETGRQLLDEVEVATEPAGSRIVQEKVFKGLDLLEKAAEMLSQLDLFSRNEDLEEIASTDLKYLLVPAFQGALTMKQVNPSKRLDHLQRAREHFINYLTQCHCYHVAEFELPKTMNNSAENHTANSSMAYPSLVAMASQRQAKIQRYKQKKELEHRLSAMKSAVESGQADDERVREYYLLHLQRWIDISLEEIESIDQEIKILRERDSSREASTSNSSRQERPPVKPFILTRNMAQAKVFGAGYPSLPTMTVSDWYEQHRKYGALPDQGIAKAAPEEFRKAAQQQEEQEEKEEEDDEQTLHRAREWDDWKDTHPRGYGNRQNMG
notes: mature; also called alpha4; IGBP1 gene product; not shown: two-hybrid fusion partner

Columns and labels:
[1] = biological target: T1, endogenous α4 of the transfected human cell lines (HeLa, U373MG) (UniProt P78318 2-339); test: cell-based or functional assay
T1 sequence (looked up): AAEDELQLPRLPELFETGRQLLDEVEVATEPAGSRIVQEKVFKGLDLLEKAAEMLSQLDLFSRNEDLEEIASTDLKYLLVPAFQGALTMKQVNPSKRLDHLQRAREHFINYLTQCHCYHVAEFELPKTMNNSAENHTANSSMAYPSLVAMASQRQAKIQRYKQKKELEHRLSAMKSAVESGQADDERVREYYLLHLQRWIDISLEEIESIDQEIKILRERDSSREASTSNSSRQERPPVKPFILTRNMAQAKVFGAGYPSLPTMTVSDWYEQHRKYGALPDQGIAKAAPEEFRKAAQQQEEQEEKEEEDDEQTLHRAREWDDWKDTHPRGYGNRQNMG

[2] = biological target: B4; test: yeast two-hybrid, comparison of the α4-affinities of MID1 peptides
[3] = biological target: B2; test: yeast two-hybrid, deletion studies with α4 (preliminary data)
[4] = biological target: T2, HHARI (UniProt Q9Y4X5 1-557, limits assumed); test: yeast two-hybrid, growth on his- leu- trp- plate
T2 construct: Two-hybrid fusion protein; fusion partner not described

[5] = biological target: T3, PARKIN (UniProt O60260 1-465, limits assumed); test: yeast two-hybrid, growth on his- leu- trp- plate
T3 construct: Two-hybrid fusion protein; fusion partner not described
T3 sequence (O60260 whole entry, the tested form may be a part): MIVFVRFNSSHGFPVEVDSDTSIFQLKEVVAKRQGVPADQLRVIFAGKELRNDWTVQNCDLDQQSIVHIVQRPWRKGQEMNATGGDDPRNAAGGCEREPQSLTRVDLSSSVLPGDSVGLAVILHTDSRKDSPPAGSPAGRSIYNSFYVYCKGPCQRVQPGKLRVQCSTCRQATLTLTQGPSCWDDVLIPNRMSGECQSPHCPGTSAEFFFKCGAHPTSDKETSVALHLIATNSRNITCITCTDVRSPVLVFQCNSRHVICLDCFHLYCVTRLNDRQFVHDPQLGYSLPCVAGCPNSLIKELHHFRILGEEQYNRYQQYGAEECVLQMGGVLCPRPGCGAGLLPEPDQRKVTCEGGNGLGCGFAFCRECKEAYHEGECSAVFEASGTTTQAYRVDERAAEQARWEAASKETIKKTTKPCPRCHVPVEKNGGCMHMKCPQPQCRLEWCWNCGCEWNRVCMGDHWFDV

T2 sequence (Q9Y4X5 whole entry, the tested form may be a part): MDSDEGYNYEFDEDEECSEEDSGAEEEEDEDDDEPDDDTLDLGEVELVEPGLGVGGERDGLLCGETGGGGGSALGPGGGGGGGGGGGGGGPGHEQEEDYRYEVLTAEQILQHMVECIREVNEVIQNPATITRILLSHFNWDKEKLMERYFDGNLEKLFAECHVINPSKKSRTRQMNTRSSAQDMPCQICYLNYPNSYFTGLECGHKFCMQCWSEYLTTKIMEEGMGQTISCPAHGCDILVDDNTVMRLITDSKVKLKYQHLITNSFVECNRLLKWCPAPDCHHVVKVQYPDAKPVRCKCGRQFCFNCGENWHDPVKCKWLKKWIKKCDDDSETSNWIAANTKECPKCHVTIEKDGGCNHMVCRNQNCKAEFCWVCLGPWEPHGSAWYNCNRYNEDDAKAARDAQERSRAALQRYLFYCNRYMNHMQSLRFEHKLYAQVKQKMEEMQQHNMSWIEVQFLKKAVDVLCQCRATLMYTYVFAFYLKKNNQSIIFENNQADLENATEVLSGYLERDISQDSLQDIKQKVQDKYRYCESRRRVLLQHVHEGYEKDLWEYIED

B1: myc-tagged B-box 1 of the MID1 protein (peptide, not shown: small tags and cut ends)
peptide: TMTSAEKVLCQFCDQDPAQDAVKTCVTCEVSYCDECLKATHPNKKPFTGHRLIEPIPD
ratio between phosphorylated and dephosphorylated hFused-form (western blot) [1]: 3 ratio | ratio between phosphorylated and dephosphorylated hFused-form (western blot, repeat) [1]: 3 ratio

B2
fold increase of affinity for α4 compared to the full length MID1 protein [2]: 10 fold

B3: small part of α4 (44 amino acids), yeast two-hybrid deletion construct (peptide)
peptide: ERPPVKPFILTRNMAQAKVFGAGYPSLPTMTVSDWYEQHRKYGA
notes: The range 236-279 is inferred from the equal length of 44 residues; also called peptidic fragment of α4
strength of interaction relative to full-length α4 [3]: > 10 times

B4
binding result [4]: no binding | binding result [5]: no binding
